# Assay results as given in patent US20030124132A1 (University of Texas, published 2003).
# B1: tTF219: residues 1-219 of TF plus an additional glycine at the N-terminus (protein)
# chain: GSGTTNTVAAYNLTWKSTNFKTILEWEPKPVNQVYTVQISTKSGDWKSKCFYTTDTECDLTDEIVKDVKQTYLARVFSYPAGNVESTGSAGEPLYENSPEFTPYLETNLGQPTIQSFEQVGTKVNVTVEDERTLVRRNNTFLSLRDVFGKDLIYTLYYWKSSSSGKKTAKTNTNEFLIDVDKGENYCFSVQAVIPSRTVNRKSTDSPVECMGQEKGEFRE
# Tests used:
# [1] = system: L540 human Hodgkin's disease tumors; experiment: Growth of L540 tumors after immunoglobulin-tTF conjugate and/or etoposide; assay type: in vivo, mice; conditions: day 14
# Method: (§1) The tumor test systems were: i) L540 human Hodgkin's disease tumors growing in SCID mice; ii) C1300 Muγ (interferon-secreting) neuroblastoma growing in nu/nu mice; iii) H460 human non-small cell lung carcinoma growing in nu/nu mice. To establish solid tumors, 1.5×10^7 tumor cells were injected subcutaneously into the right anterior flank of SCID or BALB/c nu/nu mice (Charles River Labs., Wilmingham, Mass.). When the tumors had grown to various diameters, mice were assigned to different experimental groups, each containing 4 to 9 mice.
# (§2) Other mice received equivalent quantities of bispecific antibody alone. The injections were performed over ˜45 seconds into one of the tail veins, followed by 200 μl of saline. The infusions were repeated six days later. Perpendicular tumor diameters were measured at regular intervals and tumor volumes were calculated.
# Mice bearing L540 human Hodgkin's disease tumors were treated with a complex of tTF219 and a bispecific antibody together with the anti-cancer drug, etoposide, at a conventional dose.
# [2] = system: tissue factor on HUVEC cells; experiment: FACS analysis of tissue factor expression on endothelial cells; assay type: cell-based, human; conditions: TNFα 500 U/ml, LPS 10 μg/ml, VEGF 1 nM, alone or in combination, 6 h
# Method: To analyze tissue factor expression on the surface of endothelial cells, HUVEC cells were incubated with TNFα (500 U/ml), LPS (10 μg/ml) or vascular endothelial growth factor (VEGF, 1 nM) alone or in combination for 6 h at 37°. Cells were then detached and stained for surface expression of human tissue factor with a sheep-anti-human tissue factor antibody (Haemochrom, Essen, Germany) and an appropriate FITC-conjugated secondary antibody. Fluorescent cells were detected on a flow cytometer (Becton Dickinson, San Jose, Calif.).
# [3] = system: bEnd 3 cells; experiment: Cell bound coagulation assay on stimulated endothelial cells (Factor Xa generation); assay type: cell-based, mouse
# Method: (§3) To assay the coagulation induction of stimulated versus unstimulated endothelial cells, bend 3 cells were seeded in 48 well tissue culture plates at a density of 1×10^4 cells per well and allowed to adhere overnight. Cells were stimulated with endotoxin (0.5 μg/ml and 10 μg/ml) or TNFα (500 U/ml) for 4 h at 37° C. […] After incubation for 45 min at room temperature, cells were washed and incubated with various coagulation factor mixes as follows: (1) 0.5 μg/ml factor VIIa in a mix containing 2.8 μg/ml factor IX, 3.4 μg/ml factor X, 50 μM phospholipids, in calcium buffer (as specified above); (2) 0.01 μg/ml factor VIIa in a mix as in (1); (3) 2 μg/ml factor VII (Calbiochem-Novabiochem, San Diego, Calif.) in a mix as in (1); (4) 2 μg/ml factor VII. 0.01 μg/ml factor VIIa in a mix as in (1). The supernatant of wells was transferred into a 96 well ELISA plate. Substrate S2765 was added and Factor Xa generation measured alongside different concentrations of Factor Xa standard (7 nkatS2222; 0.7 nkatS2222; 0.07 nkatS2222). OD405 nm values were calculated as nkatS2222 Factor Xa from the Factor Xa standard curve.
# as §3, with “bEnd” for “To assay the coagulation induction of stimulated versus unstimulated endothelial cells, bend”, “with” for “with various”, “mix” for “mixes”, “follows:” for “follows: (1)”, “buffer;” for “buffer (as specified above); (2) 0.01 μg/ml factor VIIa in a mix as in (1); (3) 2 μg/ml factor VII (Calbiochem-Novabiochem, San Diego, Calif.) in a mix as in (1); (4) 2 μg/ml factor VII. 0.01 μg/ml factor VIIa in a mix as in (1). The”
# [4] = system: VCAM-1 on mouse endothelial cells; experiment: VCAM-1 upregulation on endothelial cells by TNFα (FACS); assay type: cell-based
# Method: (§4) Mouse endothelial cells were seeded in 48 well tissue culture plates and allowed to adhere overnight. Cells were stimulated with TNFα at the following concentrations: 500 U/ml; 100 U/ml; 20 U/ml; 4 U/ml; 0.8 U/ml; 0.16 U/ml; and with medium only.
# Endothelial cells were then investigated for upregulation of the adhesion molecule VCAM-1 by fluorescence activated cell stain (FACS). To this end, cells were stained with an antibody against murine VCAM-1, followed by an appropriate FITC-conjugated secondary antibody. Fluorescent cells were detected on a flow cytometer (Becton Dickinson, San Jose, Calif.).
# [5] = system: mouse endothelial cells; experiment: Cell based two stage coagulation assay after TNFα stimulation
# Method: as §4
# Endothelial cells were also tested for coagulant activity in a cell based two stage coagulation assay. After incubation with TNFα, cells were washed and incubated with coagulation factor mix (0.5 μg/ml factor VIIa in a mix containing 2.8 μg/ml factor IX, 3.4 μg/ml factor X, 50 μM phospholipids, in calcium buffer). The supernatant of wells was transferred into a 96 well ELISA plate. Substrate S2765 was added and Factor Xa generation measured.
# [6] = system: A20 lymphoma cells (I-A^d positive), mouse or human plasma; experiment: In vitro coagulation assay on A20 cells with capture bispecific antibody B21-2/10H10; assay type: cell-based
# [7] = system: C1300 Muγ mouse neuroblastoma vessels; experiment: In vivo tumor thrombosis by tTF, C1300 Muγ; parameters: species or system BALB/c nu/nu mice
# From the text: (§5) Tumor test systems were of four types: i) 3LL mouse lung carcinoma growing subcutaneously in C57BL/6 mice; ii) C1300 mouse neuroblastoma growing subcutaneously in BALB/c nu/nu mice; iii) HT29 human colorectal carcinoma growing subcutaneously in BALB/c nu/nu mice; and iv) C1300 Muγ mouse neuroblastoma growing subcutaneously in BALB/c nu/nu mice. The C1300 Muγ tumor is an interferon-γ secreting transfectant derived from the C1300 tumor (Watanabe et al., 1989).
# (§6) To establish tumors, 10^6 to 1.5×10^7 tumor cells were injected subcutaneously into the right anterior flank of the mice. When tumors had grown to various sizes, mice were randomly assigned to different study groups. […] Fab′, or bispecific antibody. Other mice received equivalent quantities IgG, Fab′ or bispecific antibody alone. The injections were performed slowly into one of the tail veins over approximately 45 seconds, usually followed by 200 μl of saline.
# (§7) Twenty-four hours after being injected with tTF or immunoglobulin-tTF conjugates, the mice were anesthetized with metophane and were exsanguinated by perfusion with heparinized saline. Tumors and normal tissues were excised and immediately fixed in 3% (v/v) formalin. Paraffin sections were cut and stained with hematoxylin and eosin. Blood vessels having open lumens containing erythrocytes and blood vessels containing thrombi were counted. […]
# [8] = system: HT29 human colorectal carcinomas; experiment: Anti-tumor effects of tTF219 in HT29 tumors; assay type: in vivo, Nu/nu mice; conditions: large (1200 mm^3) tumors, i.v.
# Method: Anti-tumor effects were also observed in mice bearing HT29 human colorectal carcinomas. Nu/nu mice bearing large (1200 mm^3) tumors on their flanks were injected intravenously with tTF219 or PBS (control), and growth of the tumors was monitored each day for 10 days. The tumors in the tTF219 treated mice discontinued growth for about 7 days after treatment, whereas the tumors in mice treated with PBS continued to grow unchecked.
# [9] = system: C1300 Muγ tumors; experiment: Anti-tumor effects of tTF and immunoglobulin-tTF in C1300 Muγ tumors; assay type: in vivo, nu/nu mice; conditions: 300 mm^3 tumors
# Method: as §1, §2
# Mice bearing small (300 mm^3) C1300 Muγ tumors were injected intravenously with 16-20 μg tTF219. The treatment was repeated one week later. […] One week after the second treatment with tTF219, tumors were 60% of the size of tumors in mice receiving diluent alone. The greater effectiveness of the second injection probably derives from the greater thrombotic action of tTF219 on vessels in large tumors, observed above.
# Mice bearing small (300 mm^3) subcutaneous C1300 Muγtumors were treated with tTF219 or with a complex of tTF219 and a bispecific antibody, OX7 Fab′/10H10 Fab′, not directed to a component of the tumor environment. The treatment was repeated 6 days later.
# [10] = system: 3LL mouse lung carcinoma vessels; experiment: In vivo tumor thrombosis by tTF, 3LL; parameters: species or system C57BL/6 mice; conditions: large (>800 mm^3) tumors
# From the text: as §5, §6, §7
# [11] = system: H460 human lung carcinomas; experiment: Anti-tumor effects of tTF219 in H460 tumors; assay type: in vivo, nu/nu mice
# Method: as §1, §2
# In addition to the effects in mice bearing C1300 Muγ tumors, similar anti-tumor effects were observed using other tumor types. […] The second treatment with tTF219 was given when the tumors were larger (900 mm^3) and caused the tumors to regress to 550 mm^3 before regrowing.
# [12] = system: HT29 (human colorectal carcinoma) xenograft; experiment: Tumor necrosis by tTF constructs with Factor VIIa, HT29 xenograft; assay type: in vivo, BALB/c nu/nu mice; conditions: single agents; 24 hours
# [13] = system: C1300 mouse neuroblastoma vessels; experiment: In vivo tumor thrombosis by tTF, C1300; parameters: species or system BALB/c nu/nu mice
# From the text: as §5, §6, §7
molecule,measurement,setting,value
COc1cc([C@@H]2c3cc4c(cc3[C@@H](O[C@@H]3O[C@@H]5CO[C@@H](C)O[C@H]5[C@H](O)[C@H]3O)[C@H]3COC(=O)[C@H]23)OCO4)cc(OC)c1O [etoposide],average tumor volume,[1],1400 mm^3
TNFα,tissue factor expression on the surface of HUVEC,[2],upregulated tissue factor expression
same,Factor Xa generation,"[3]; cells stimulated with TNFα (500 U/ml), then incubated with row agent (row Medium = stimulant alone), mix with 0.5 μg/ml factor VIIa",0.35 nkats2222
same,Factor Xa generation due to Factor VIIa production,"[3]; cells stimulated with TNFα (row Medium = stimulant alone), mix with 2 μg/ml factor VII and 0.01 μg/ml factor VIIa",1.23 nkats2222
same,TNFα required for a measurable increase of VCAM-1 expression,[4],20 U/ml
same,TNFα at which an increase in coagulation versus negative control could be detected,[5],0.16 U/ml
same,dose for coagulation increase lower than for VCAM-1 increase,[5],125 fold
B1,plasma coagulation time,"[6]; 10^−10 M tTF219, 13.5 nM Factor VIIa",20 s
same,plasma coagulation time,"[6]; 10^−10 M tTF219, absence of Factor VIIa",60 s
same,increase in coagulation-inducing potency,[6]; presence of 0.1 nM Factor VIIa,2-5 fold
same,enhancement in coagulation-inducing potency,[6]; presence of 13.5 nM Factor VIIa,~100 fold
same,tumor vessel thrombosis,[7]; 24 hours after injection,practically all vessels in all regions of the tumor were thrombosed
same,tumor vessel thrombosis,[7]; small (<500 mm^3) tumors,largely unaffected
same,time of discontinued tumor growth after treatment,[8],about 7 days
same,"tumor size, of tumors in mice receiving diluent alone","[9]; 16-20 μg i.v., repeated one week later, one week after second treatment",60%
same,"tumor size, of controls receiving diluent alone","[9]; treatment repeated 6 days later, fourteen days after the first injection",75%
same,"tumor vessels thrombosed, average",[10],62%
same,effect on growth rate,"[11]; first treatment, tumors 250 mm^3",little effect on growth rate
same,tumor volume to which tumors regressed,"[11]; second treatment, given at 900 mm^3",550 mm^3
same,tumor necrosis,[12],some necrosis
same,tumor vessel thrombosis,"[13]; large tumors (>1000 mm^3), 24 hours after injection",virtually all vessels were thrombosed
same,tumor vessel thrombosis,[13]; small (<500 mm^3) tumors,largely unaffected
